Data taken from publication PMC11569192 (Nature Communications, 2024).

Assays:
[1] = target: sc9-10 DS-Cav1 (respiratory syncytial virus subtype A, strain A2 | not stated) (UniProt P03420); test: SEC
[2] = target: DS-Cav1 (respiratory syncytial virus subtype A, strain A2 | not stated) (UniProt P03420); test: SEC
[3] = target: sc9-10 DS-Cav1-His6 (respiratory syncytial virus subtype A, strain A2 | not stated) (UniProt P03420); test: SEC
[4] = target: sc9-10 DS-Cav1-His6 (respiratory syncytial virus subtype A, strain A2 | not stated) (UniProt P03420); test: cross-linking
[5] = target: SC-TM-His6 (respiratory syncytial virus subtype A, strain A2 | not stated) (UniProt P03420); test: SEC
[6] = target: SC-TM-His6 (respiratory syncytial virus subtype A, strain A2 | not stated) (UniProt P03420); test: cross-linking
[7] = target: DS-Cav1-His6 (respiratory syncytial virus subtype A, strain A2 | not stated) (UniProt P03420); test: SEC
[8] = target: DS-Cav1-His6 (respiratory syncytial virus subtype A, strain A2 | not stated) (UniProt P03420); test: cross-linking
[9] = target: DS-Cav1-His6 (respiratory syncytial virus subtype A, strain A2 | not stated) (UniProt P03420); test: negative-stain EM
sc9-10 DS-Cav1 = target: T1, sc9-10 DS-Cav1 (Human respiratory syncytial virus A, …, S215P | A149C | Y458C | S46G | K465Q); test: cell-based or functional assay
T1 chain: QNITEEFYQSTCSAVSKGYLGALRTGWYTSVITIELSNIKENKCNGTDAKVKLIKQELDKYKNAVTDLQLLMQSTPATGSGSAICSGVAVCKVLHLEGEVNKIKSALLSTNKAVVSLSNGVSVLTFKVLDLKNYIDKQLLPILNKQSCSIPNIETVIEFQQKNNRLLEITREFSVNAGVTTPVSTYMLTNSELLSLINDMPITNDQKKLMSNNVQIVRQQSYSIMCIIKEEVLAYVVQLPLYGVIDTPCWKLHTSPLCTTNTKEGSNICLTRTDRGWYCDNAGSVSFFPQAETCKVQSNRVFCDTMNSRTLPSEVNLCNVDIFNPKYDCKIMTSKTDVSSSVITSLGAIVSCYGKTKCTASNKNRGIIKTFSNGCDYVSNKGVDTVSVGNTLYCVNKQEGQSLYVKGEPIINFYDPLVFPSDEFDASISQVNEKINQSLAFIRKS

UFCM1 = UFCM1 (human metapneumovirus, Q1A2Z0 …, UniProt Q1A2Z0, E80D | T127C | N153C | A185P); test: ELISA
UFCM1-P2 = UFCM1-P2 (human metapneumovirus, Q1A2Z0 …, UniProt Q1A2Z0, E80D | T127C | N153C | A185P | V155P); test: ELISA
847A-His6 = 847A-His6 (human respiratory syncytial virus A, …, UniProt A0A7D5GVC1, I148C | D486S); test: ELISA
UFCM1-P2-iSS = target: T2, UFCM1-P2-iSS (Human metapneumovirus, strain NL/1/00 …, stabilised); test: negative-stain EM
T2 chain: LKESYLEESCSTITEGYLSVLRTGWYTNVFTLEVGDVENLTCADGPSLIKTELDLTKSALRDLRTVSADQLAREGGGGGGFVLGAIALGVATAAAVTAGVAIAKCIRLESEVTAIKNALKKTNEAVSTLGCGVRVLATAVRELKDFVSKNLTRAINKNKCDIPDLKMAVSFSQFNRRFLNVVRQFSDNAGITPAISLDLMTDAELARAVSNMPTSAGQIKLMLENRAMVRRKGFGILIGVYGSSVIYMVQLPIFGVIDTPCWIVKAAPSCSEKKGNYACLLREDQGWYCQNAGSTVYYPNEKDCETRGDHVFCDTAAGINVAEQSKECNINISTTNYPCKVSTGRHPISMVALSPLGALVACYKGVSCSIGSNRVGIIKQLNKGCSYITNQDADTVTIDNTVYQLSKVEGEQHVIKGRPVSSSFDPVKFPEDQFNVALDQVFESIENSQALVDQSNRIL

sc9-10 DS-Cav1 (from UniProt P03420 26-513) (domain or fragment)
stoichiometry N [1]: 3

DS-Cav1 (from UniProt P03420 137-513) (domain or fragment)
stoichiometry N [2]: 3

sc9-10 DS-Cav1-His6 (from UniProt P03420 26-513) (domain or fragment)
stoichiometry N [3]: 3 | stoichiometry N [4]: 3

SC-TM-His6 (from UniProt P03420 26-513) (domain or fragment)
stoichiometry N [5]: 3 | stoichiometry N [6]: 3

DS-Cav1-His6 (from UniProt P03420 137-513) (domain or fragment)
stoichiometry N [7]: 3 | stoichiometry N [8]: 3 | stoichiometry N [9]: 3

B1: A4 scFv-Fc (scFv, V domains shown)
VH: EVQLVESGGGLVQPGGSLRLSCAASGFTFTTYAMHWVRQSPGKGLEWLASISYDGTSQYYAESVKGRFTVSRDNSKKTLLLQVNSLRPEDTAVYYCAGSPSGHYSWLGYFYAMDVWGQGTLVTVSS
VL: QSALTQPASVSGSPGQSITISCTGASSDVGGYDYVSWYQQHPGKAPKLLIYDVSDRPSGVSNRFSGSKSGNTASLTISGLQTEDEADYYCSSYTSKNTLIFGGGTKLTVL
live RSV (RSV-A2-GFP) neutralization, IC50, scFv-Fc form (sc9-10 DS-Cav1): 2.1 ng/mL

B2: MPE8 IgG (antibody, V domains shown)
VH: EVQLVESGGGLVKPGGSLRLSCAASGFTFSSYSMNWVRQAPGKGLEWVSSISASSSYSDYADSAKGRFTISRDNAKTSLFLQMNSLRAEDTAIYFCARARATGYSSITPYFDIWGQGTLVTVSS
VL: QSVVTQTPSVSGAPGQRVTISCTGSSSNIGAGYDVHWYQQLPGTAPKLLIYDNNNRPSGVPDRFSASKSGTSASLAITGLQAEDEADYYCQSYDRNLSGVFGTGTKVTVL
binding result (UFCM1): binds | binding result (UFCM1-P2): binds | binding result (847A-His6): binds

B3: MPE8 Fab (Fab, V domains shown)
VH: B2 VH
VL: B2 VL
stoichiometry N (UFCM1-P2-iSS): 3 Fabs per trimer
